In the supplement of paper PMC10126150:
± gives the standard deviation of the averaged measurements.

Tested on: ATP
Test: switch fluorescence ratio, 500 uM ATP over buffer (Cy3 cluster intensity, sum of 5 cycles each) (fold (ratio)); higher = stronger signal-on switching upon ATP binding; sequences stand for … in TCGTCGGCAGCGTCAGATGTGTATAAGAGACAGTTTTTTTTTTTTTTTTTTTTTTTTT…TC
Conditions: aptamer strand: ATP DNA aptamer (quencher-CACCTGGGGGAGTATTGCGGAGGAAGG + anchor), 100 nM annealed; ATP concentration: 500 uM
Method in brief: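 Clusters with intensities outside 100-1000 RFU were excluded. The remaining Cy3-labelled switching-strand clusters on a modified Illumina MiSeq flow-cell had been annealed to 100 nM quencher-labelled ATP aptamer and imaged in selection buffer, then after 15 min with 500 uM ATP at 22 °C, for five cycles separated by NaOH stripping and re-annealing. The fluorescence ratio, averaged per switch-domain sequence, is each cluster's summed target-cycle Cy3 intensity over its summed buffer-cycle Cy3 intensity.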
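Further: ATP exposure 15 min at 22 °C before imaging.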

Sequence | switch fluorescence ratio
ACTCGGGGGA | 1.018 ± 0.0035
ACTCGGGTAA | 1 ± 0.017
ACTCGTTTAT | 0.99 ± 0.013
ACTCTGGGC | 1.17 ± 0.21
ACTCTTATCA | 1.01 ± 0.023
ACTCTTTATA | 1.04 ± 0.035
ACTCTTTTAC | 1.291 ± 0.0056
ACTGAAGATT | 1.0263 ± 0.00089
ACTGACGATG | 1.31 ± 0.018
ACTGAGGCCG | 1.04 ± 0.16
ACTGAGGGCG | 1.02 ± 0.025
ACTGAGGGTA | 1.04 ± 0.027
ACTGAGTAA | 1.01 ± 0.076
ACTGAGTCAT | 1.01 ± 0.034
ACTGAGTTGT | 1.04 ± 0.038
ACTGATTGGC | 1.18 ± 0.18
ACTGCATCTA | 1.09 ± 0.033
ACTGCCGGTG | 1.25 ± 0.053
ACTGCCGTAT | 1.01 ± 0.036
ACTGCTTCCT | 1.34 ± 0.051
ACTGGAGGGC | 1.08 ± 0.1
ACTGGGGAGC | 0.985 ± 0.0078
ACTGGGGATA | 0.988 ± 0.047
ACTGGGGATG | 0.963 ± 0.043
ACTGGGTCCT | 0.973 ± 0.015

Sequence | switch fluorescence ratio
ACTGGGTGGA | 1.02 ± 0.034
ACTGGGTGGC | 1.01 ± 0.029
ACTGGTATTA | 1.02 ± 0.014
ACTGGTGCAT | 1.04 ± 0.019
ACTGTAGTTT | 1.11 ± 0.07
ACTGTATGTC | 1.03 ± 0.014
ACTGTCGGGC | 1.03 ± 0.025
ACTGTGAATT | 1.02 ± 0.011
ACTGTTAATA | 1.03 ± 0.023
ACTGTTATGT | 1.07 ± 0.022
ACTGTTGGCG | 0.965 ± 0.067
ACTGTTGTGT | 1.06 ± 0.1
ACTGTTGTTG | 1.006 ± 0.01
ACTTAAAAGC | 1 ± 0.019
ACTTAACATT | 1.18 ± 0.056
ACTTAGACAC | 1.095 ± 0.0089
ACTTATATAG | 1.012 ± 0.0065
ACTTATGTTG | 0.995 ± 0.024
ACTTATTGGG | 1.03 ± 0.011
ACTTATTGTA | 0.9878 ± 0.0098
ACTTATTTGC | 1.16 ± 0.17
ACTTCACATA | 1.35 ± 0.042
ACTTCAGCAG | 1.12 ± 0.023
ACTTCAGGGG | 1.13 ± 0.1
ACTTCGAGCG | 1.08 ± 0.02

Sequence | switch fluorescence ratio
ACTTGACTTG | 1.03 ± 0.018
ACTTGAGTTT | 0.988 ± 0.01
ACTTGATTGT | 1.02 ± 0.094
ACTTGCACTT | 1.22 ± 0.038
ACTTGCGGGC | 1.03 ± 0.021
ACTTGCTATA | 1.06 ± 0.029
ACTTGCTATC | 1.25 ± 0.048
ACTTGGACGC | 1.14 ± 0.044
ACTTGGGCTT | 1.03 ± 0.051
ACTTGGGGTA | 0.992 ± 0.04
ACTTGGGGTG | 1.04 ± 0.013
ACTTGGTCGA | 0.9902 ± 0.0095
ACTTGGTGGG | 0.986 ± 0.049
ACTTGTTCAT | 1.01 ± 0.033
ACTTTAATGA | 1.07 ± 0.018
ACTTTAGCGG | 0.99001 ± 0.0002
ACTTTCATGG | 1.01 ± 0.018
ACTTTCCACA | 1.17 ± 0.027
ACTTTGAAGC | 0.996 ± 0.019
ACTTTGAATA | 0.988 ± 0.013
ACTTTGACAT | 1.072 ± 0.0092
ACTTTGAGAT | 1.03 ± 0.012
ACTTTGCTCT | 1.032 ± 0.0064
ACTTTGGAGG | 1.02 ± 0.034
ACTTTGTTGC | 1.01 ± 0.0079

Sequence | switch fluorescence ratio
ACTTTGTTTT | 1 ± 0.022
ACTTTTCGGT | 1 ± 0.015
ACTTTTTATG | 0.991 ± 0.035
AGAAAAATAC | 1.49 ± 0.67
AGAAAAATTG | 0.979 ± 0.067
AGAAAAGAA | 1 ± 0.036
AGAAAATATT | 1.004 ± 0.0076
AGAAAATTGG | 1.01 ± 0.03
AGAAAGAAAA | 0.993 ± 0.09
AGAAAGAGGG | 1.002 ± 0.0013
AGAAAGCGTT | 1.02 ± 0.022
AGAAAGGATT | 1.01 ± 0.021
AGAAAGGGCA | 1.04 ± 0.03
AGAAAGGGTG | 1.14 ± 0.074
AGAAAGTTAA | 0.9856 ± 0.0047
AGAAATAGGA | 1.01 ± 0.035
AGAAATGACG | 1 ± 0.037
AGAAATTGGG | 0.992 ± 0.028
AGAACAAACC | 1.08 ± 0.018
AGAACGGCCT | 1.01 ± 0.019
AGAAGAAGGC | 0.988 ± 0.022
AGAAGAGGTA | 0.949 ± 0.024
AGAAGATGGT | 0.9827 ± 0.0029
AGAAGCTGGG | 1 ± 0.03
AGAAGGGGAT | 1.01 ± 0.021

Sequence | switch fluorescence ratio
AGAAGGGTGG | 0.992 ± 0.043
AGAAGGGTGT | 1.02 ± 0.017
AGAAGGTGTT | 1.07 ± 0.078
AGAAGTCGCG | 0.9551 ± 0.0013
AGAAGTGTTT | 1.022 ± 0.0063
AGAATAAGAC | 1.02 ± 0.085
AGAATCAGGT | 0.9701 ± 0.0014
AGAATCTTGC | 1.167 ± 0.0026
AGAATGAGGG | 0.991 ± 0.041
AGAATGCAGC | 0.995 ± 0.041
AGAATGGAAC | 0.976 ± 0.056
AGAATGGAGG | 0.994 ± 0.025
AGAATGGGCA | 0.989 ± 0.029
AGAATTGCGG | 0.98 ± 0.044
AGAATTGGGG | 0.982 ± 0.027
AGAATTGTAC | 1.05 ± 0.014
AGAATTGTGG | 0.9728 ± 0.0027
AGAATTTTCC | 1.08 ± 0.076
AGACAAATGC | 1.19 ± 0.21
AGACAATTAG | 1.01 ± 0.093
AGACACTTAA | 1.04 ± 0.023
AGACAGGGG | 1.04 ± 0.017
AGACCATCGT | 1.01 ± 0.032
AGACCGTGTT | 1.03 ± 0.054
AGACCTAAAG | 1.05 ± 0.069

Sequence | switch fluorescence ratio
AGACGATGAG | 0.933 ± 0.026
AGACGATTGG | 0.974 ± 0.076
AGACGGCAGC | 0.992 ± 0.035
AGACGGGGGT | 0.997 ± 0.028
AGACGGTCAA | 1.08 ± 0.032
AGACGTCGGG | 1.016 ± 0.0031
AGACGTTTAA | 1.002 ± 0.0035
AGACTAGGCT | 1.02 ± 0.018
AGACTATGAG | 1.03 ± 0.034
AGACTGGTAC | 1.156 ± 0.0022
AGACTTCAGC | 1.04 ± 0.022
AGAGAAGAT | 0.988 ± 0.026
AGAGAATGG | 0.951 ± 0.023
AGAGAGAGGT | 0.992 ± 0.045
AGAGAGCCGT | 1.06 ± 0.031
AGAGAGCTTT | 1.01 ± 0.021
AGAGATTCGG | 1.012 ± 0.01
AGAGATTGTT | 0.94745 ± 0.00025
AGAGCAATTG | 1.19 ± 0.014
AGAGCATATG | 1.02 ± 0.017
AGAGCATGGG | 0.971 ± 0.016
AGAGCTAAGT | 0.982 ± 0.027
AGAGCTGGGT | 1.02 ± 0.02
AGAGCTTGAT | 1 ± 0.036
AGAGGAAGGG | 0.993 ± 0.01

Sequence | switch fluorescence ratio
AGAGGAAGGT | 1.03 ± 0.046
AGAGGATGTG | 1.01 ± 0.033
AGAGGCATCG | 0.9941 ± 0.005
AGAGGCCAGG | 1.0973 ± 0.00031
AGAGGCTGTG | 1.01 ± 0.038
AGAGGGAAGG | 0.959 ± 0.014
AGAGGGATAC | 1.07 ± 0.035
AGAGGGCGGG | 0.98 ± 0.031
AGAGGGCTAT | 0.989 ± 0.038
AGAGGGGGCG | 1.01 ± 0.039
AGAGGGGTTA | 1.01 ± 0.056
AGAGGGTGCG | 0.934 ± 0.041
AGAGGGTGGG | 0.994 ± 0.04
AGAGGGTTGC | 0.978 ± 0.029
AGAGGTAGGA | 0.979 ± 0.016
AGAGGTAGTA | 1.017 ± 0.0066
AGAGGTATAC | 0.969 ± 0.011
AGAGGTCCGA | 0.991 ± 0.037
AGAGGTTATG | 0.986 ± 0.041
AGAGGTTTGG | 0.9944 ± 0.0051
AGAGTAAAGT | 0.98 ± 0.015
AGAGTAGGGA | 0.989 ± 0.02
AGAGTATTAA | 0.9824 ± 0.004
AGAGTCACGG | 0.982 ± 0.024
AGAGTCAGCA | 1.02 ± 0.021

Sequence | switch fluorescence ratio
AGAGTCGTCA | 0.965 ± 0.0068
AGAGTCGTGC | 0.997 ± 0.051
AGAGTGCCTG | 1.04 ± 0.058
AGAGTGTATG | 1.006 ± 0.0086
AGAGTGTTGG | 0.985 ± 0.034
AGAGTTAGGT | 1.021 ± 0.0047
AGAGTTATTG | 0.998 ± 0.018
AGAGTTCCGG | 1 ± 0.029
AGAGTTTCTT | 0.981 ± 0.038
AGATAAAAGG | 0.998 ± 0.015
AGATAAAGGT | 0.995 ± 0.057
AGATAAATCA | 0.978 ± 0.033
AGATAATTCT | 1.02 ± 0.013
AGATAATTTG | 0.99459 ± 0.00061
AGATAATTTT | 0.988 ± 0.014
AGATACTTGA | 1.01 ± 0.014
AGATAGAGCG | 1.01 ± 0.024
AGATAGGGAG | 0.9786 ± 0.0031
AGATAGTATT | 0.986 ± 0.02
AGATATACGG | 1.02 ± 0.034
AGATATTTAT | 0.987 ± 0.014
AGATCCTCTA | 1 ± 0.011
AGATCGAGTT | 0.99 ± 0.041
AGATCTGGGG | 1.04 ± 0.036
AGATCTTCTT | 0.987 ± 0.015
